# Laboratory results: US20110015120A1, “Pharmaceutical and cosmetic compositions including lactoferrin, ciclopirox, etidronic acid” (VALETUDO S . r . l ., priority 2009, published 2011)
# “And” between values parts separate entries of the source, which are not always exact repeats. Identical values can stand only once.
# System: MALASSEZIA GLOBOSA
# Experiment: Inhibition of Malassezia globosa growth, colony count (UFC/ml) on Dixon's Agar
# Type: cell-based
# Conditions: for dil 10X colony count: 200 μl of suspension diluted 10X on Petri dish; for dil 10X colony count / X50 (calculation made based on the dilution): three replicates; for AVERAGE: average of three replicates; for % reduction of Malassezia globosa cells growth (% increase of antimycotic activity): compared to CICLOPIROXOLAMINE alone; for X50 (calculation made based on the dilution): dil 10X count x50
# Method: To assess the capacity of the LACTOFERRIN to enhance the antimycotic action of the CIPROPIROXOLAMIN, a suspension of a MALASSEZIA GLOBOSA STRAIN is inoculated on a specific culture medium and the capacity of the compounds to inhibit the mycotic growth is observed, by counting of the UFC/ml.
# As first approach, the two compounds are tested at the concentration of 1:500 and, subsequently, diluted in culture medium at 2 decreasing concentrations (10× and 100×) in order to visualize the individual activities. Then in order to evaluate the capacity of the LACTOFERRIN to increase the antimycotic effect of the CICLOPIROXOLAMIN, the same test was carried out on the mix of the two active ingredients at different ratios (1:2 and 1:5).
# Each test was performed three times and the incubation times were 1 and 4 hours respectively.
# Based on the results obtained, the best dilution for the execution of the tests was the 10× dilution and both the incubation times (1 hour and 4 hours) were taken into consideration since the experimental conditions permitted an accurate count to be carried out of the colonies on the Petri dishes.
# The microorganism used is MALASSEZIA GLOBOSA.
# The microorganisms were cultured in specific culture medium (Dixon's Agar) until reaching a concentration of approximately […] per ml. Aliquots of 1 ml of this inoculum were then taken to which were added respectively: • Ciclopiroxolamine 1:500 • Lactoferrin 1:500 • Mixture 1:2 Ciclopiroxolamine:lactoferrin • Mixture 1:5 Ciclopiroxolamine:lactoferrin
# As positive control, the untreated inoculum was used (MALASSEZIA and diluting liquid), as negative controls the two active ingredients in diluting liquid.
# After incubations of 1 hour and 4 hours respectively, aliquots of 200 μl of each suspension were spread on Petri dishes.
# For each treatment, the test was carried out three times and for 3 different dilutions (non diluted suspension (TQ), dilution 10× and dilution 100×).
# The 54 dishes obtained were then examined, after incubation of 5-6 days and the microbial load of each specimen was calculated (UFC/ml).
# The % increase of the antimycotic property corresponds to the % reduction of the growth of Malassezia Globosa
molecule,measurement,setting,value
"Lactoferrin (protein, UniProt P02788 20-710, looked up) Lactotransferrin: GRRRSVQWCAVSQPEATKCFQWQRNMRKVRGPPVSCIKRDSPIQCIQAIAENRADAVTLDGGFIYEAGLAPYKLRPVAAEVYGTERQPRTHYYAVAVVKKGGSFQLNELQGLKSCHTGLRRTAGWNVPIGTLRPFLNWTGPPEPIEAAVARFFSASCVPGADKGQFPNLCRLCAGTGENKCAFSSQEPYFSYSGAFKCLRDGAGDVAFIRESTVFEDLSDEAERDEYELLCPDNTRKPVDKFKDCHLARVPSHAVVARSVNGKEDAIWNLLRQAQEKFGKDKSPKFQLFGSPSGQKDLLFKDSAIGFSRVPPRIDSGLYLGSGYFTAIQNLRKSEEEVAARRARVVWCAVGEQELRKCNQWSGLSEGSVTCSSASTTEDCIALVLKGEADAMSLDGGYVYTAGKCGLVPVLAENYKSQQSSDPDPNCVDRPVEGYLAVAVVRRSDTSLTWNSVKGKKSCHTAVDRTAGWNIPMGLLFNQTGSCKFDEYFSQSCAPGSDPRSNLCALCIGDEQGENKCVPNSNERYYGYTGAFRCLAENAGDVAFVKDVTVLQNTDGNNNEAWAKDLKLADFALLCLDGKRKPVTEARSCHLAMAPNHAVVSRMDKVERLKQVLLHQQAKFGRNGSDCPDKFCLFQSETKNLLFNDNTECLARLHGKTTYEKYLGPQYVAGITNLKKCSTSPLLEACEFLRK",Log (AVERAGE),period of incubation 1 hour,4.13
same,dil 10X colony count,period of incubation 1 hour,303 and 256 and 250
same,AVERAGE,period of incubation 1 hour,13483.33 UFC/ml
same,% reduction of Malassezia globosa cells growth (% increase of antimycotic activity),period of incubation 1 hour,−39.4%
same,X50 (calculation made based on the dilution),period of incubation 1 hour,15150 UFC/ml and 12800 UFC/ml and 12500 UFC/ml
same,Log (AVERAGE),period of incubation 4 hour,4.109
same,dil 10X colony count,period of incubation 4 hour,340 and 232 and 200
same,AVERAGE,period of incubation 4 hour,12866.67 UFC/ml
same,% reduction of Malassezia globosa cells growth (% increase of antimycotic activity),period of incubation 4 hour,−695.8%
same,X50 (calculation made based on the dilution),period of incubation 4 hour,17000 UFC/ml and 11600 UFC/ml and 10000 UFC/ml
